In experiment [1] the target is MYC-tagged NKp46 (extracellular domain) (human) (UniProt O76036). Briefly: MST.
Experiment [2] addresses NKp46–Ig (ACROBiosystems), used for MST and BLI (human) (UniProt O76036). Briefly: MST.

In the case of “CRT P domain fused to the Fc region of human Ig (Fc fusion)”, the dissociation constant (Kd) – broadly, the concentration at which binding is half-saturated – in experiment [1] is 41.2 µM.

In experiment [2], “influenza haemagglutinin, His-tagged (natural protein)” returned a Kd of 1.46 µM.

The values are drawn from publication PMC10165876.
